A short description of this data set: label from the status in PepcDB records.
For “MVQRITIAPQGPEFSRFVMGYWRLMDWNMSARQLVSFIEEHLDLGVTTVDHADIYGGYQCEAAFGEALKLAPHLRERMEIVSKCGIATTAREENVIGHYITDRDHIIKSAEQSLINLATDHLDLLLIHRPDPLMDADEVADAFKHLHQSGKVRHFGVSNFTPAQFALLQSRLPFTLATNQVEISPVHQPLLLDGTLDQLQQLRVRPMAWSCLGGGRLFNDDYFQPLRDELAVVAEELNAGSIEQVVNAWVLRLPSQPLPIIGSGKIERVRAAVEAETLKMTRQQWFRIRKAALGYDVP”, the protein production result is recorded as “not failed”. In the case of “MVQTKRYAGLTAANTKKVAMAAPMFSIIIPTLNVAAVLPACLDSIARQTCGDFELVLVDGGSTDETLDIANIFAPNLGERLIIHRDTDQGVYDAMNRGVDLATGTWLLFLGADDSLYEADTLARVAAFIGEHEPSDLVYGDVIMRSTNFRWGGAFDLDRLLFKRNICHQAIFYRRGLFGTIGPYNLRYRVLADWDFNIRCFSNPALVTRYMHVVVASYNEFGGLSNTIVDKEFLKRLPMSTRLGIRLVIVLVRRWPKVISRAMVMRTVISWRRRR”, the protein production entry is on record as “failed”. In the case of “MVREGFDVTLVEARERGGLETSYANGGQLSYRYVAPLADSGVPAQALGWLLRNDAPLRLRPRLDPAQWRWLLGFLAACRGSLNRRNAAHLLRLALLSQRTLQDWREEDGLDGFDWRRNGKLVAFRQPASFARARQGLADPSAQFVLTAAECLALEPALSAAPFVGGIHTPDEEVADCHAFCVQLAERLQASGHCRQLHGRRVTKIVEGGAAVRGVEVGGDLIEADHVVLAAGYRSAELMLPGLRLPLYPLKGYSLTLPVGAQHRAPDTSITDYDRKIVYARIGERLRIAAMVDIVGFDPGLEPARLALLRQQARDTFPQGGDFDAAVEWAGMRPATPTGVPLVGNGGYRNLWLNLGHGALGFTLACGSGRLLAEQIGRRPPSIDTTGLLPRGALAG”, the protein production result was “failed”. The same measure for “MVRKLRHFGDRLREEPDKFRFVLSRALWVTGLCRLITFSFPAGYRMRFYPSAISAGLWRDRNFRSEDADFVAGYLRPGETFVDVGANVGQLSLVAARRVTSSGRTIAIEAHPRTCNFLRGNVRLNGLPIEIHNVAVGSECGELFFTNFRSDDMNFAYAASPRNGSALRVPVATLDSIIGERPVDLLKVDVEGFECDLLRGAAQTLHNCRCLYIEDSEPNLRRAGSSRVELYDRLSEGGFELFHVRGKRLERVSVQAAGPLTENLIAVRGSDLPDALARTGFCLA”: “failed”. With “MVRLDLPWDLVDEILSRLPATSLGRLRFTCKRWNALFKDPEFITKQFHKAAKQDLVLMLSNFGVYSMSTNLKEIPNNIEIAQVFHCNGLLLCSTEEGNKTKLVVVNPCTGQTRWIEPRTDYNYNHDIALGYGNNSTKKSYDSYKILRITYGCKLVEIFELKSNSWRVLSKVHPNVEKHYYGGVSFKGNTYWLSYTKFNILSFDFTTETFRSVPLPFLYQDGFVTLALSVVREEQLLLLRSRFDMGQVGIWMCNKIDTETVLSWSKSFTLEFDSLRDLPVMSILRIFIEEDKKVIVVDCDDRWKENMIYIVGKNGFKKLSYEKDRSNLWRLPFFFSYVPSLVGLYPPM”, the protein production entry was “failed”. “MVRLIFSDIDGTLINSNFKVTPKTRQGIKQIVAQGATFVPISARMPEAITPIMEQIGIDSYIISYNGALIQDMQQKTIASHTMDGQVALQVCSYVSKHYSKIAWNVYRYHEWYSCDKENEWVQKEEEIVGLQSKEMSLMELEKQDRIHKLLLMGEPSLMGELENTLKAQYPHLSIAQSAPYFIEIMAPGIEKGKSAKTLADYLDISLADSIAFGDNYNDLNLLEIVGKGFVMGNAPKDLQERIGNVTQDNDNDGIYYALVEYMEN”: the protein production result is listed as “failed”.

For the sequence “MVRNMLIESVLFLAAGLFMLSYGSDWFVLGASRVAKQFNISSFVIGATIVAFGTSLPEIVTSAYAASTGSVELAVGNALGSCIANIGLVLGLSLIISTVFIKNRSVLKNGYLYIIYTIIFTAIGYNGFSFFDGIFLLFLLLVYVVYTIKSGEMDDEEHEKSITFKKAIIYLLIGLLFVILGSSFFVDGAKGLASAFGVSEKIIGFTIVAFGTSLPELSVSFAAARQKLGGIVIGNVIGSNIANMFGALAIASIIHEIPAVKFELSVNILMVLLLIAMMSKEKIKAVLNLNSTKEYLSKITKADGLILILIYLLFVLGLTGIF”, the protein production result was “failed”. The same measure for “MVRNSMKAEYDIDHLPHQTFYGDYSKTLVPMNKNSQIITKIKPKIRIIHIFAPEIINTDVKNFRTLVQSLTGKPEITKTGSKKKITNTNFPAPPGLPQDSGQEHTAELDNRIIGSHVVKEEWGSSSNTNTYFDFDGLIDLDEDDNIFSSRWFDLQQQ”: “failed”.

For the sequence “MVRRTRAEMEETRATLLATARKVFSERGYADTSMDDLTAQASLTRGALYHHFGDKKGLLAAVVEQIDAEMDERLQAISDTAEDDWEGFRCRCRAYLEMALEPEIQRIVLRDARAVLGGASPDSQRHCVESMQRLIDNLIRQGVVAEADPQALASLIYGSLAEAAFWIAEGEDGNARLAQGVAALELLLRGLLVKPR”, the protein production result is “not failed”.

With “MVRVCACLIVKNEAAHLARCLGSVQPWVDDIVVVDTGSTDETPAIARQFTERLFTFPWQDDFAAARNYSLEQATGDWILVIDADEVLVTLQEPPVPLGQQLAGSPFTAYQLLRREIGTGEQFSDFAIVRLFRNLPTLRYQGRFHEQLVSTAAAPLTIGTLETLRIDHYGYQPAQIQAKMRDRNIPILERIRASEGLPLHLLFALADMYQAVNNPVEAENCYQELFDRLLPHLLSGQLPENAPGALPEILNQLGRRLLATGDHDTLQLLCQQGLAWFPTYPPLNDLAGRWLMTLGFPLGATAYFEYCLELGRTNGYSKQMIFPLGYVREIAAEQLGRAYEALGDRERAAAAFAQAAALRQGKAHPQLEHHHHHH”, the protein production result is listed as “not failed”.

With “MVRVVRHSRGTCNRGLYEVRELARNRTLQQWGVEDSAELYGIRNWGAGYFDVAQNGDVVVYPFGHNRGPAVSIPEIIGGMRERGYDMPVLLRIENILDSQITSLHTSFRNAIGSLGYKGEYRGIFPIKVNQQQQVVEKIAQFGSHYHHGLEVGSKAELIAAVSQLRDREACLVCNGYKDEEFIDLGLHAVRLGFMCIFVLEMPGELDLILERGEALGVKPIIGVRAKLSVKAGGHWTDSGGERSTFGLTTSQIVDVVDRLKEKGMLDCFKLLHYHLGSQVPNIRDIRAAVMEACRIYAGLVQEGAAMGFLDLGGGLAVDYDGSHTNFVSSRNYTLDEYCADIVEAVMTTLDEQNIPHPHIVTESGRATVAYYSMLLFNILDVSRVEIGNLPDALPEDTPEPVRNMREVLAGMTLRNLQECYNDALYYRDAVRQLFLTGQVTLRQRTLSERLFWAIMKRIAQEKQKLKHVPKDLAEIDVALADIYYGNFSVFQSLPDSWAIDQLFPVMPVHRLQELPSRQGILSDITCDSDGRIDHFIDPQGMKGTLDLHPLRDGEEYYLGVFLVGAYQETLGDLHNLLGDTNVVSVRVHEDGTYEFVREIRGDSVADILSYVEYDPRRIYEDIRELAERAVREGRITASDRFRVMQAYEDGLRGYTYFERLEHHHHHH”, the protein production result is “failed”. The same measure for “MVSFRSRSNPAVVILGLGRFGMALGEELVHSGVEVMGIDTNPAVVDKASAILTYAAVADTTSEEALRQLAVNEASRVVIGIGSDMGASLLTASAVVEFNIPSIWAKALNNSHAKILKQIGVHHIIRPEQDTGRRIAHLMNGRVQEYAEFDRDYAIVKIAPPVSALGKKVCDFDRVQIIAVRPAGGMFRQSKPEMVLRSGDLILAAGNPDELERFGTLD”: “failed”; for “MVSLVMSGLTFWAVNTIQQDAQVNDTRFGRDLGLLLAANVAPLVADHNLTEVAQFSQRFYSSTSSVRYMLYADETGKIFFGIPFWEPEVENSLSIERRIQLPEEYPGDGEKPMVRQHMSPDGIVTDVFIPLIVDKKYLGVLAIGINPNQTAVISTNFTRDVTIAVFITIWVMVILAGVVNALTITKPIKELLVGVKQIAAGNFKQRIDLPLGGELGELILNFNEMAERLERYEEQNIEELTAEKAKLETLVSTIADGAVLIDNNMQVILVNPTARHIFGWEGADDVVGSNVLHHLPPAVQMEITRPLYEMAAGECDSAEFRLTLNQPSNRTIRILLTTVLNLQRESIKGIAITVQDITREVELNEAKSQFISNVSHELRTPLFNIKSFIETLHDYGEDLSLEERQEFLQTVNHETDRLTRLVNDVLDLSKLESGRSYSFDGVDLAQAIEQTLRTYQLNARDKGIELIQDVAPGLPLVLGNYDLLLQVLANLVGNALKFTSSGGKIAIRTYVLNTKSNSPNQPAQVRIEVSDTGIGIAQEDQQAIFDRFFRVENRVHTLEGTGLGLSIVRNIVERHRSRVNLVSEVGVGTTFWFDLILFEDEAPKKMVESGEEKAAMPTS”: “failed”. Regarding “MVSRIPTGNRGQGNGIEQSASSHATEATPWLGVNLPYGHWLPSSARSVVSRASSLLGGLANFRWGGRPASARPAPNIRSAAIAPAQQTLPPELWQQIATLAGARPRRAMREVSLELRNASRAVVTHLTISDPAMFRQLSLYPALKSVRFKGELTLEALKALPPELEHLEIGRCTGSAISAEGLAHLASMPLKSLNLNGIEIGVEGARTLAASKSLVSLSLIGCGIGDRAAQALVASRSIQCLDLSVNRIGRDGAQALAGAPLVSLNLHNNEIGNEGARVLATSRTLTSLDVSNNGVGNAGAEAFAGNTVLKQLSLAGGMISGDGAQALADNKSLTDLDLSNNRLGDAGAQALADSESFVSLKLGGNEIGADGAEALARNVVLQSLNLSYNPIGFWGVNALGRAKLRKLDLCACAIDSDGASALARNTSLASLYLGSNRIGDDGARALAKNSTLTLLNLSGNNIHAVGAQALASNDSLITLDLSRNGIGDDGTAALACHPRLTSLNLSRNQIGSTGAQQLAKSATLAELDLSENRIGPEGAEALARSTVLTTLNVSYNAIGEAGARALAESVSLTSLDARRNGIGEDGAKVLEANTRITGTPQNPNFLAEDVPRPDVRWRD”, the protein production result is recorded as “failed”. The entry for “MVSTIIISFFIIIIAVVILVLVATRSKSPSSGGRKKVKGRAVLMKEASRRLAQNPHDIEGLFIMGDIYYQDQDWEKAYTAYSALLDRMKPLEMNKQLDVAIRYGICALKTNRLPEAKKGFLLAETINPKNLDVSYNLGYIYYLEKDYEKAVKFFKRTLILEPNSFLATKYLGYTLQHLHKYTEALPALKKALDFKPDDKEVLFAMGECFYETEATDRCLKILNHLRVDPVFGPQASLYTGMIRAKADQLERAIEDFQIGLKHTGIPMDISNELKYRLAQAYIKTQEIGQALHLLKEIQSISPGYKDAATLIMRYQELNKNKNLQIYLMSGQSEFVALCRKIVARFYPKAKVKIVDISVLAAYTDIVAEIDTSRFSDTVIFRFFRSQGTVGELLLRELHARLKEVKGGTGICMSAGTFTEEAVRFSEGRPLDLYDKTRLSNVLNSLK” is “failed”; for “MVSVNLPWELVEEILCRVPPQSLVKFRTVCKQWNSLFDDNKFVNDHFVQSQPQLIFRTESKIYSVAVNFKGPRIEVHELPLAIPGLKSEMPIRLHDYVDCDGLLFCTSYFNGVLIWNPWLRQTRFFPSIHRYPVTYDIGYDNKKQYKMLDYYKCEGDSSIKSIIYEIGLYSKKVKDLESDSTWSIFQSNSVSLNGTLYWAGVDVNNGIFIRSFSFSTEKPRTFCSLPFMYDDDNVLALAVFRKDRLSLLNLCNKTSEIKIWLTKNNINDREVGLEEDVVWINLMTVLIPNFPKFSFYWYNRPDLTYFLDNDDAKRLVICCYDETDQAYIYIVKGDMFKKIKIDQYEVLSDYSRPHFHTYIPSLVRPSRVKEDNKN” it is “failed”.

Values taken from a protein production outcome set (Wang et al. 2014).
